This experiment has as its target Fcγ receptors on THP-1 cells (human (endogenous in THP-1)) (UniProt P12314). The experiment is described as follows: retention of opsonized erythrocytes on adherent THP-1 cells.
UniProt P12314, sequence (P12314 16-374): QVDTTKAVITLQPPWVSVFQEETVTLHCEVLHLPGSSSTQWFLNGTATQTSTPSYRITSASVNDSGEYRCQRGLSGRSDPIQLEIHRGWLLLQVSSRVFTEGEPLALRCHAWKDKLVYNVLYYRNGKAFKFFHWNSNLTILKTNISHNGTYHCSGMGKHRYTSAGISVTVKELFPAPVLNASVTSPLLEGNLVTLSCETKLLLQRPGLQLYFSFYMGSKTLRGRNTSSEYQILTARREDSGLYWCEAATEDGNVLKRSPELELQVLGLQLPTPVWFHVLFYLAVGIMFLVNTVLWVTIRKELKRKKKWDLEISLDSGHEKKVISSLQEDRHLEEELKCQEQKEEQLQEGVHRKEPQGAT

“single-cleaved rabbit antihuman erythrocyte IgG generated by imlifidase (antibody)” came in with a concentration at which erythrocyte retention occurred of 5 µg/mL. As to “rabbit antihuman erythrocyte antibody (Rockland; 209-4139), intact IgG”, the concentration at which erythrocyte retention occurred is 0.6 µg/mL.

For the origin of these results see publication PMC9213077.
